Reference: patent US20150197571A1

Key:
[1] = biological target: T1, human PD-L2 expressed on 300.19 cells (human) (UniProt Q9BQ51); test: FACS on hPD-L2 300 cells, supernatant undiluted
T1 sequence: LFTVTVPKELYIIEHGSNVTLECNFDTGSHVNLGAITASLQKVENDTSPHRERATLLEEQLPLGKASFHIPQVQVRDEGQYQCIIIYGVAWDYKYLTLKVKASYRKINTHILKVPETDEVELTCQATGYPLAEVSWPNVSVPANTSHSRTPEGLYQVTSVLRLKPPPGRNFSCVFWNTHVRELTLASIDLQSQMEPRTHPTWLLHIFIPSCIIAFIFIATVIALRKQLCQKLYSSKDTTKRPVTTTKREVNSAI

[2] = biological target: T1, human PD-L2 expressed on 300.19 cells (human); test: FACS competition, PD-1-Ig on hPD-L2 300 cells, mAb 90 ug/ml
[3] = biological target: T1, human PD-L2 expressed on 300.19 cells (human); test: FACS on hPD-L2 300 cells, supernatant 1 to 100
[4] = biological target: T1, human PD-L2 expressed on 300.19 cells (human); test: FACS competition, PD-1-Ig on hPD-L2 300 cells, mAb 1.1 ug/ml
[5] = biological target: T1, human PD-L2 expressed on 300.19 cells (human); test: FACS competition, PD-1-Ig on hPD-L2 300 cells, mAb 30 ug/ml
[6] = biological target: T1, human PD-L2 expressed on 300.19 cells (human); test: FACS on hPD-L2 300 cells, supernatant 1 to 10
[7] = biological target: T1, human PD-L2 expressed on 300.19 cells (human); test: FACS competition, PD-1-Ig on hPD-L2 300 cells, mAb 0.04 ug/ml
[8] = biological target: T1, human PD-L2 expressed on 300.19 cells (human); test: FACS competition, PD-1-Ig on hPD-L2 300 cells, mAb 0.12 ug/ml
[9] = biological target: T1, human PD-L2 expressed on 300.19 cells (human); test: FACS, hybridoma supernatant on 300.19 cells expressing human PD-L2
[10] = biological target: T1, human PD-L2 expressed on 300.19 cells (human); test: FACS competition, PD-1-Ig on hPD-L2 300 cells, mAb 3.3 ug/ml
[11] = biological target: T1, human PD-L2 expressed on 300.19 cells (human); test: FACS competition, PD-1-Ig on hPD-L2 300 cells, mAb 0.37 ug/ml
[12] = biological target: T1, human PD-L2 expressed on 300.19 cells (human); test: FACS competition, PD-1-Ig on hPD-L2 300 cells, mAb 10 ug/ml
[13] = biological target: T1, human PD-L2 expressed on 300.19 cells (human); test: FACS blockade, PD-1-hIgG1 on PD-L2 300.19 cells
[14] = biological target: T1, human PD-L2 expressed on 300.19 cells (human); test: FACS on hPD-L2 300 cells, antibody 1 ug/ml
[15] = biological target: human PD-L1 expressed on 300.19 cells (human) (UniProt Q9NZQ7); test: FACS blockade, B7-1-hIgG on 300-hPD-L1 cells, mAb '0.0.39' [sic] ug/ml
UniProt Q9NZQ7, sequence (Q9NZQ7 19-290): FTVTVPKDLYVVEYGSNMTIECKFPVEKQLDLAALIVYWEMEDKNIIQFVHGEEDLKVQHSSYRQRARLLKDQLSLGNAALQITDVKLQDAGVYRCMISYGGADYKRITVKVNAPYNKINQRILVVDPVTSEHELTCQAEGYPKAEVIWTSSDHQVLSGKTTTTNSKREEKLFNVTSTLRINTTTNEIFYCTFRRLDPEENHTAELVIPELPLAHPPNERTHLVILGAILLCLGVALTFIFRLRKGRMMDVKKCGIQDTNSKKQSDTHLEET

[16] = biological target: human PD-L1 expressed on 300.19 cells (human) (UniProt Q9NZQ7); test: FACS blockade, B7-1-hIgG on 300-hPD-L1 cells, mAb 20 ug/ml
[17] = biological target: human PD-L1 expressed on 300.19 cells (human) (UniProt Q9NZQ7); test: FACS competition, PD-1-Ig on hPD-L1 300 cells, mAb 0.04 ug/ml
[18] = biological target: human PD-L1 expressed on 300.19 cells (human) (UniProt Q9NZQ7); test: FACS on hPD-L1 300 cells, antibody 1 ug/ml
[19] = biological target: T1, human PD-L2 expressed on 300.19 cells (human); test: FACS on hPD-L2 300 cells, antibody 0.1 ug/ml
[20] = biological target: human PD-L1 expressed on 300.19 cells (human) (UniProt Q9NZQ7); test: FACS blockade, B7-1-hIgG on 300-hPD-L1 cells, mAb 0.625 ug/ml
[21] = biological target: human PD-L1 expressed on 300.19 cells (human) (UniProt Q9NZQ7); test: FACS competition, PD-1-Ig on hPD-L1 300 cells, mAb 90 ug/ml
[22] = biological target: human PD-L1 expressed on 300.19 cells (human) (UniProt Q9NZQ7); test: FACS blockade, B7-1-hIgG on 300-hPD-L1 cells, mAb 0.0195 ug/ml
[23] = biological target: human PD-L1 expressed on 300.19 cells (human) (UniProt Q9NZQ7); test: FACS blockade, B7-1-hIgG on 300-hPD-L1 cells, mAb 1.25 ug/ml
[24] = biological target: T1, human PD-L2 expressed on 300.19 cells (human); test: FACS on hPD-L2 300 cells, antibody 10 ug/ml
[25] = biological target: human PD-L1 expressed on 300.19 cells (human) (UniProt Q9NZQ7); test: FACS competition, PD-1-Ig on hPD-L1 300 cells, mAb 1.1 ug/ml
[26] = biological target: human PD-L1 expressed on 300.19 cells (human) (UniProt Q9NZQ7); test: FACS blockade, B7-1-hIgG on 300-hPD-L1 cells, mAb 0.0098 ug/ml
[27] = biological target: human PD-L1 expressed on 300.19 cells (human) (UniProt Q9NZQ7); test: FACS blockade, B7-1-hIgG on 300-hPD-L1 cells, mAb 2.5 ug/ml
[28] = biological target: human PD-L1 expressed on 300.19 cells (human) (UniProt Q9NZQ7); test: FACS blockade, B7-1-hIgG on 300-hPD-L1 cells, mAb 0.313 ug/ml
[29] = biological target: human PD-L1 expressed on 300.19 cells (human) (UniProt Q9NZQ7); test: FACS competition, PD-1-Ig on hPD-L1 300 cells, mAb 10 ug/ml
[30] = biological target: human PD-L1 expressed on 300.19 cells (human) (UniProt Q9NZQ7); test: FACS blockade, B7-1-hIgG on 300-hPD-L1 cells, mAb 0.156 ug/ml
[31] = biological target: human PD-L1 expressed on 300.19 cells (human) (UniProt Q9NZQ7); test: FACS competition, PD-1-Ig on hPD-L1 300 cells, mAb 0.12 ug/ml
[32] = biological target: human PD-L1 expressed on 300.19 cells (human) (UniProt Q9NZQ7); test: FACS blockade, B7-1-hIgG on 300-hPD-L1 cells, mAb 0.078 ug/ml
[33] = biological target: human PD-L1 expressed on 300.19 cells (human) (UniProt Q9NZQ7); test: FACS on hPD-L1 300 cells, antibody 10 ug/ml
[34] = biological target: human PD-L1 expressed on 300.19 cells (human) (UniProt Q9NZQ7); test: FACS competition, PD-1-Ig on hPD-L1 300 cells, mAb 3.3 ug/ml
[35] = biological target: human PD-L1 expressed on 300.19 cells (human) (UniProt Q9NZQ7); test: FACS competition, PD-1-Ig on hPD-L1 300 cells, mAb 30 ug/ml
[36] = biological target: human PD-L1 expressed on 300.19 cells (human) (UniProt Q9NZQ7); test: FACS on hPD-L1 300 cells, antibody 0.1 ug/ml
[37] = biological target: human PD-L1 expressed on 300.19 cells (human) (UniProt Q9NZQ7); test: FACS blockade, B7-1-hIgG on 300-hPD-L1 cells, mAb 5 ug/ml
[38] = biological target: human PD-L1 expressed on 300.19 cells (human) (UniProt Q9NZQ7); test: FACS blockade, B7-1-hIgG on 300-hPD-L1 cells, mAb 10 ug/ml
[39] = biological target: human PD-L1 expressed on 300.19 cells (human) (UniProt Q9NZQ7); test: FACS competition, PD-1-Ig on hPD-L1 300 cells, mAb 0.37 ug/ml

B1: 4H1 monoclonal antibody (antibody, V domains shown)
VH: DVQLQESGPGLVKPSQSLSLTCTVTDYSITSDYAWTWIRQFPGNKLEWMGYITYRGTTRYNPSLTSRISFTRDTSKNQLFLQLNSVTTEDTGTYCCARSMITTGYYAMDYWGQGTSVTVSS
VL: DIVMTQSHKFMSTSVGDRVSISCKASQDVGISVAWYQQKPGQSPKLLIYWASTRHTGVPVRFTGSGSGTDFTLTISNVQSEDLADYFCQQYSSYPPTFGAGTKLELK
B1 was tested, and the Mean of PE signal [1] was 840, the Mean of PE Signal (bound PD-1-Ig) [2] was 52200 and the Mean of PE signal [3] was 672. It also gave a Mean of PE Signal (bound PD-1-Ig) [4] of 54600, a Mean of PE Signal (bound PD-1-Ig) [5] of 56100 and a Mean of PE signal [6] of 757. The Mean of PE Signal (bound PD-1-Ig) [7] was 54700, the Mean of PE Signal (bound PD-1-Ig) [8] was 52500 and the MFI [9] was 93. For the same binder, the Mean of PE Signal (bound PD-1-Ig) [10] was 56000, the Mean of PE Signal (bound PD-1-Ig) [11] was 52400 and the Mean of PE Signal (bound PD-1-Ig) [12] was 56800. The MFI of bound PD-1-Ig (inversely proportional to blockage) [13] was 21100.

B2: 29E.2A3 (antibody, from a related filing, V domains shown)
VH: EVQLQQSGPELVKPGASVKMSCKASGYTFTSYVMHWVKQKPGQGLEWIGYVNPFNDGTKYNEMFKGKATLTSDKSSSTAYMELSSLTSEDSAVYYCARQAWGYPWGQGTLVTVSA
VL: DIVLTQSPASLAVSLGQRATISCRATESVEYYGTSLVQWYQQKPGQPPKLLIYAASSVDSGVPARFSGSGSGTDFSLTIHPVEEDDIAMYFCQQSRRVPYTFGGGTKLEIK
With B2 the Mean of PE signal [14] was 150, the Mean of PE Signal (bound B7-1-Ig) [15] was 1230 and the Mean of PE Signal (bound PD-1-Ig) [2] was 55100. It also gave a Mean of PE Signal (bound B7-1-Ig) [16] of 811, a Mean of PE Signal (bound PD-1-Ig) [17] of 6100 and a Mean of PE signal [18] of 234000. For the same binder, the Mean of PE signal [19] was 150, the Mean of PE Signal (bound PD-1-Ig) [4] was 56100 and the Mean of PE Signal (bound PD-1-Ig) [5] was 53900. The Mean of PE Signal (bound B7-1-Ig) [20] was 850, the Mean of PE Signal (bound PD-1-Ig) [21] was 54 and the Mean of PE Signal (bound B7-1-Ig) [22] was 1710. It also gave a Mean of PE Signal (bound B7-1-Ig) [23] of 788, a Mean of PE signal [24] of 251 and a Mean of PE Signal (bound PD-1-Ig) [25] of 51. It also gave a Mean of PE Signal (bound B7-1-Ig) [26] of 2540, a Mean of PE Signal (bound B7-1-Ig) [27] of 823 and a Mean of PE Signal (bound B7-1-Ig) [28] of 770. For the same binder, the Mean of PE Signal (bound PD-1-Ig) [29] was 52, the Mean of PE Signal (bound B7-1-Ig) [30] was 853 and the Mean of PE Signal (bound PD-1-Ig) [31] was 523. It also gave a Mean of PE Signal (bound B7-1-Ig) [32] of 807, a Mean of PE signal [33] of 235000 and a Mean of PE Signal (bound PD-1-Ig) [34] of 50. For the same binder, the Mean of PE Signal (bound PD-1-Ig) [7] was 58800, the Mean of PE Signal (bound PD-1-Ig) [35] was 53 and the Mean of PE Signal (bound PD-1-Ig) [8] was 53900. The Mean of PE signal [36] was 109000, the Mean of PE Signal (bound B7-1-Ig) [37] was 853 and the Mean of PE Signal (bound PD-1-Ig) [10] was 56700. The Mean of PE Signal (bound PD-1-Ig) [11] was 52900, the Mean of PE Signal (bound B7-1-Ig) [38] was 797 and the Mean of PE Signal (bound PD-1-Ig) [12] was 53800. It also gave a Mean of PE Signal (bound PD-1-Ig) [39] of 65.
